The record followed here is a protein production outcome set (Wang et al. 2014).

The data set is described as follows: label from the status in PepcDB records.
For the sequence “MKIINIGVLAHVDAGKTTLTESLLYTSGAIAESGSVDTGTTRTDTTFLERQRGITIQTAVTSFQWKDIKVNIIDTPGHMDFLAEVYRSLSVLDGAILLISARDGVQAQTRILFHALNKMGIPTIFFINKIDQNGIDLSTVYQDIKEKLSMEIIIKQKVELHPNMCVMSCTEPEQWDVVIEGNDYLLEKYTLGKSLEILELEQEEIRRFQNCSLYPVYHGSAKSNIGIEQLIEVITNKFYSSTYRKKSELCGNVFKIEYSEERQRLAYVRLYGGILHLRDSVRISEKEKIKITEMYTSINGELCKIDKAYSGEIVILQNEFLKLNSVLGDTKLLPQRERIENPLPLLQTTVEPSKPQQREMLLDALLEISDSDPLLQYYVDSTTHEIILSFLGKVQMEVTCALLQEKYHVEVKIKKPTVIYMERPLKKAEYTIHIEVPPNPFWASIGLSVAPLPLGSGVQYESSVSLGYLNQSFQNAVMEGIRYGCEQGLYGWNVTDCKICFKYGLYYSPVSTPADFRMLAPIVLEQVLKKAGTELLEPYLSFKIYAPQEYLSRAYNDAPKYCANIVDTQLKNNEVILSGEIPARCIQEYRNDLTFFTNGRSVCLTELKGYYVTTGESVCQPRRPNSRIDKVRYMFNKIT”, the protein production result is “failed”.
As for “MRRSLRHGFTALLTTWALLLPTVAVAQEPIDNVPEVTADNAETLEDIIDDALTPTTRLEAPNTDLCPYKESPSPARSTSEVVAPGAQTPALVPVPSVPAGGEKLATCGVITPNGFELPEDSDETITASAWMVFDIDSGEIIAAKDPHGRYRPASIIKVLLSLVAIDELNPTTVVTGTMEAANIEGSRVGVGEGGQYTVDQLLHGLLLASGNDAAYLLAQELGGDQATLEKVNALAKELGTQDTFVATYSGLDAPGMSTSAYDMSLIYQHAWQNPVFESIISTDHIDFPGWGDNEGFQVWNDNALFMNDPDGIGGKTGYTDDANHTFVGGLDRGGRRLAAVLLDSTVSDIRPWEQARLLIDASLPITPGSGVGQLGSGSANDVAPATPELPEPTDNLTSGEGGSQNTLLKLVVPIGIIVLLLIAALAWTFRSPKKKN”, the protein production entry is on record as “failed”.
“MTPATTTLVFTYGTLKRGFSNHVLMQDLIRSGDASFKGVYQTLDKYPLVCGPYRVPFLLNKPGSGYHVNGELYAVSPRGLSRLDELEGISRGHYIRQPIRLAAAEEEEEEEGDLETEAPSSCVVEAYYAHKSYEEELWRRNRGRSFGAYTENEARGYVKRNDRPQHLSFLDHIRIFVSSPCD”: the protein production entry is on record as “failed”.
In the case of “MKLTHSFIKQQARLGLNFFRYLLARMNHDRVNVNAGYLAYITLLSMVPMLTVLLSILSSFALFANAGEVIQDFVITHFVPAAGEVVKTALIEFVANTGKMTAVGGAFLFVAAIMLISNIDKNLNYIWRVQQKRRAVFSFSMYWMILTLGPILVGASIAATSYITSLKILDNEALSGVYNLFLRWLPFVLSYCAFVGLYLLVPNKKVHWQHAMLGALIAAILFELSKKGFAAYITQFPSYQLIYGALAAIPILFVWVYLCWLIVLVGAEVTAALGEREHWSDSQDMLHFAPLPKNEKE” it was “not failed”; in that of “MEDIKIKEIFENIYEVDLGDGLKRIATKSIVKGKKVYDEKIIKIGDEEYRIWNPNKSKLAAAIIKGLKVMPIKRDSKILYLGASAGTTPSHVADIADKGIVYAIEYAPRIMRELLDACAERENIIPILGDANKPQEYANIVEKVDVIYEDVAQPNQAEILIKNAKWFLKKGGYGMIAIKARSIDVTKDPKEIFKEQKEILEAGGFKIVDEVDIEPFEKDHVMFVGIWEGK”, “not failed”.
As to “MRDTRESRLLLVLLVAIAFALITVDIRGGQDSPVDGARQAAATVFGPIENGVSSAVDPVGNAVAAVRDSGSRHDRIAQLEHDNAALKAKLGSDDRNRSRLKQLNKMIRVAGEGQYGIKGAEVIGIGAAQGFSWTVTIDVGANDGIKRDMTVLNGDGLVGRVTTVGPNAATVLLANDPDFTVGTRMESSDELGFASGQGDRPLRVQLLNGKAKVVKGDRLVTFGSQADRPFVPGVPVGVVSRVDPSGGDLTRTVYVTPYVSFTKLDIVGVVVAAPKKDPRDEVLPPKPRPTPTPTVTVTVTPSANASADGQQQQQ”, the protein production result was “failed”.
As to “MIDPREPIVTPVPVEELRPTQITVGMREVALKRQMIREQDAKKKTGAFLGKHMVPVVLGPKNRNYVTDHHHLARALLEEGVKDVLVTVISDLSALDKDTFLFVLDNRGWMHPFDESGRRRDYSAIPKTIGELIDDPYRSMAGELRRMGGFAKDTTPFSEFIWADFLRRRIDRNAVAKNFDKAMKEALSLAKGKDADYLPGWCGPTSDLEHHHHHH”, the protein production entry is reported as “not failed”.
Take “MEDLEETLFEEFENYSYDLDYYSLESDLEEKVQLGVVHWVSLVLYCLAFVLGIPGNAIVIWFTGFKWKKTVTTLWFLNLAIADFIFLLFLPLYISYVAMNFHWPFGIWLCKANSFTAQLNMFASVFFLTVISLDHYIHLIHPVLSHRHRTLKNSLIVIIFIWLLASLIGGPALYFRDTVEFNNHTLCYNNFQKHDPDLTLIRHHVLTWVKFIIGYLFPLLTMSICYLCLIFKVKKRSILISSRHFWTILVVVVAFVVCWTPYHLFSIWELTIHHNSYSHHVMQAGIPLSTGLAFLNSCLNPILYVLISKKFQARFRSSVAEILKYTLWEVSCSGTVSEQLRNSETKNLCLLETAQ”: the protein production entry is given as “failed”.
Regarding “MDCKKVIADYWNLRSSTYTNGENGFDAEERIIWRRMLENFLPPGQRLKVLDVGTGPGFLALLFAEMGHEVTAVDISMGMLEKARNNAKTLGVKVDLFHGDAEKLPFEDCYFDLVVNKYLLWTLPQPEIAVQEWMRVLKPGGRVFAIDGNWFNPRPDKKVKRWITGVVNPDMNKNPSRSFFNEFYGPIRKALPLYEDISPENVSVVFSKMGFENTAVNPLQEAQKFKKSKLPFIQRFLRDTPIFLITGQKATE”, the protein production result was “failed”.
Regarding “LLTRQLEKSRQQQQLMVAIALIIRQSLKLEDILSVTVAEVRQFLQADRVLIYQFQPDMSGIVVAESILPGWIATKGAQIEDKCFQDSAGHNHQLKKRAINDIYQAGLTNCYLELLEQFQVKATLIVPIMVTNKSWGLLIAHQCAAPHHWQSFELDLLEQLAVQIAIAIQQASAYEQIQTELQERKRVEATLRESEQRFRQMADTAPVLIWMSGL”, the protein production entry is reported as “failed”.
Take “MKKTVIKETERLLILLGATGLLSGIGIVMNGTPITAQATTTTTQTQGILHSGDFGTSHWYISDDLTLHIGAGTFANLSNSQSAPPWTAYGDQVAKIVIEGPVTLAPNSRELFGYLGATSIEGLDQIDASHVTNFEFAFFGIQVPNLDLTSWDVHNVTDAGFMFMRAQSDVINLSGWQMPKLKLAQWMFMLAPRVHELDLAGINFRNADATRALMNMNLTVIHLGPDSLLTGTNLQPFHNDAYQDMWQDIGDGTTEAPTGKNRYTYSQLMAEFKGAAPYTYVRAKNPGQPVTVQYLDQLNQALVKADTLTGYYGDTFTAQAKTFAGYHVTSVDGEPTGTFGSRPYTVTYHYAVDEKNQQSLLGEDATITVGDPAPTSETFKAKATDKDGQALPVVVDLSQATLNQPGRYPVTLTTRDGQSKAVTLTVKAADESSSSSSSSSIDRSHSSSTPTSSSNSDDSLSSGDLISGGDTDLAVFKGQAVYATKTVRLYQRPTFKASQVRARYAKQSRTKRPMFVVIGSAHSKHHALRFKVRDVNHHSKTAGKVGYITAKKAYVTNVYYQRTYTRVTVINPQGVNGYRTRKLTGKTRHYRRGQTLRVKRLVRYHLTTRYVLTNGRYVTTNKKLVKVQQNSVQQSTQHSAAVTTRTIK”: the protein production entry is listed as “failed”.
Regarding “MKRCRRRTQAGIRINLCVQGREGLSSPTPIGPIVTSTQPDSRASSLTDDALQWTRLEVAFTAGIVGCLLFATWQLGDLLARDWLAGWVGESELREDLVYYGVAFTAALAALGGTTRSLAHAGRFRRTVGRSLLWYGALLLISASGMGAIEYLPEVAAGLFGAGVLIAAVYVLQQRYFTRERIRRRRLRNDNCPQCGSDLRPEAHHCSQCGRRMGEDCPECGGYLGRSDRYCADCGRERAEGAP”, the protein production result is recorded as “failed”.
Turning to “MEMNVKTNSSPTAPKPSKQTGWRIWWSLLRPHTLTAAFVPVFIGTAYSMQVGGINQIHLPLFLMMLLACLLIQAATNMFNEYFDYKRGLDHEGSVGIGGAIVRDGIQPKTVLNLAFGFFGIAILLGVYICINSSWWLAAIGLVCMAVAYLYTGGPLPIAYTPFGELTAGLFMGVIIIGISFFIQTGTVTSEVILLSIPSSILIGAILLANNIRDLDGDKENGRKTLAILVGRERAVGVLASMFIVSYIWTIALIIVGIVSPWMLIVFLSAPKAFKATKGFIGKSIPMEMVPAMIATAKTNTIFGFLMGIGLLLGYFL”, the protein production result is “failed”.
On to “TVNVTTKKTPPSQPPGNVVWNATDTKVLLNWEQVKAMENESEVTGYKVFYRTSSQNNVQVLNTNKTSAELVLPIKEDYIIEVKATTDGGDGTSSEQIRIPRITS”, for which the protein production entry was “not failed”.
In the case of “MNLGILLGFLIYLVLLAYIGWWANRYTKTEEQYFIGGRKVHVLAATLSDKASDFSGWLMLGYPGTAFKTGLGAFWAAIGCLFGTLADYLLIGPRLRIYAGKFRSITLPDYLEARLKDNTKLIRILSAAIILIFMTAYVAAQFAAGGKTFSEAFGVSVTTGILITVIILTAYVITGGFFAVVWTDVVQAMFMLLTLIIMPILALAEIGGLDKATQIIGSVNPAKLHPFGGATGLAAIVFAIGYASWIVGYLGQPHIVTRYMSVEDPRKLRRPGIFISGIWTTIVLWGAFFAGFLGFALAINGSIKIDDPEKIVPAMAVHFLPSWIAGFVIAGIISAVMSTADSQLLVASSAIARDIYHKVLGQELGKKQMVNISRVVVAIVSLIAMWFAISGPKVIYQMVATAWGGLAVGFGPILTLSLWWKRVTKEAGIIGMGYGLISEVLLEAKIYGWAFNPNAPGFFGTLGKWFNGVPVFFINFFITLLVIIIVSLLTKPPEDVVKLHKELFKKVPIEKSEKIKVARAKSQAENVFDFAIASGLL” it was “failed”.
The result for “MPQTPPFPVMYGSTNGYNKNLYKAKEEDYEGLYYHDNNLISGSLEALIEHLVPTVAYYPDRTYIFTFLLSSRLFLHPYELMSKVCHLCVDQQRLSDPQADKARVRKIAPKILQLLTEWTETFPYDFRDERMMKSLKELTHRLSTGEDLYRKAVQQMTQTLIRKLTTLSQYEEALAKINSSVTDRLTVLKTKPQSIQRDILTICNDPFTLAQQLTHIELERLSYIGPEEFVQAFVQKDPLDNDKNCFSDHKKASNLEAYVEWFNRLSYLVATEICMPVKKKHRARVIEFFIDVARECFNIGNFNSLMAIITGMNMSPVSRLKKTWAKVKTAKFDILEHQMDPSSNFYNYRTALRGATQRSITAHSSREKIVIPFFSLLIKDIYFLNEGCANRLPNGHVNFEKFWGLAKQVTEFMTWKKVECPFDRDRKILQYLLTAPVFSEDALYLASYESEGPENNMEKDRWKSLRSSLLNRT” reads “not failed”; that for “MENMENDENIVVGPKPFYPIEEGSAGTQLRKYMERYAKLGAIAFTNAVTGVDYSYAEYLEKSCCLGKALQNYGLVVDGRIALCSENCEEFFIPVIAGLFIGVGVAPTNEIYTLRELVHSLGISKPTIVFSSKKGLDKVITVQKTVTTIKTIVILDSKVDYRGYQCLDTFIKRNTPPGFQASSFKTVEVDRKEQVALIMNSSGSTGLPKGVQLTHENTVTRFSHARDPIYGNQVSPGTAVLTVVPFHHGFGMFTTLGYLICGFRVVMLTKFDEETFLKTLQDYKCTSVILVPTLFAILNKSELLNKYDLSNLVEIASGGAPLSKEVGEAVARRFNLPGVRQGYGLTETTSAIIITPEGDDKPGASGKVVPLFKAKVIDLDTKKSLGPNRRGEVCVKGPMLMKGYVNNPEATKELIDEEGWLHTGDIGYYDEEKHFFIVDRLKSLIKYKGYQVPPAELESVLLQHPSIFDAGVAGVPDPVAGELPGAVVVLESGKNMTEKEVMDYVASQVSNAKRLRGGVRFVDEVPKGLTGKIDGRAIREILKKPVAKM”, “not failed”.
The result for “MNRNLLLLLCSLFCFIAIGKPSDFPPVPNPPKLINDFAGMLSPAEVAELERKVNTFNDSTSIEISVVIITNLGDYDIAEYAFQLGALWGIGKDKKDNGVLLLISKENRKAFIATGYGMEGVLPDARCKRIIQAELIPQFKRSNYFNGINFTIDAIMRYSKNEYTADPVAANANRIKPAYVLLFIIGVIILVSFLNRNNNSGSNRGGNNGGYGSGGGGLLGGLLGGAIGSGYRGRSYGGGFGSGSSGGGFGGFGGGGFGGGGAGGDW” reads “failed”.
